Test results published in the RNAGym collection of RNA variant scans (doi:10.1073/pnas.2313332121).

B1: TPR t1 (parent)
chain: GACCAAUCUGCCCUCAGAGCUCGAGAACAUCUUCGGAUGCAGAGGAGGCAGGCUUCGGUGGCGCGAUAGCGCCAACGUCCUCAACCUCCAAUGCAUCCCACCACAUGAUGAUGCCUGAAGAGCCUUGGUUUUUUG

Variants of: B1
Test: polymerase ribozyme fitness, log enrichment relative to wild type (log ratio); higher = more active; in vitro selection for triplet polymerase activity
Procedure, shortened: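 Fitness measures genotype enrichment against wild-type enrichment on a logarithmic scale, with inverse-variance-weighted averaging of replicates. The logarithm is base 2, and genotypes were kept only with ≥10 input reads and ≥1 read per output in Illumina sequencing. The sequenced libraries came from one triplicate in vitro selection round, including frozen incubation at −7 °C, of PCR-built, transcribed mutant libraries of each subunit of a heterodimeric triplet polymerase ribozyme.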

Variant	polymerase ribozyme fitness (log ratio)
C72G U125A G128A U133A	-3.47
C79U A105C	-1.36
A5U C11A G63U G93U	-3.79
A16U C88U	-1.68
G44A A103U	-5.44
C11U C31U	-4.93
A16U A26G C88U C124G	-1.11
C34G C56A U106C	-6
G58C A68G C86A C115U	-6.11
A66C C88U G113U	-5.8
C72U G127U	-1.84
U7A G69C C115A	0.0666
A43C C115G	-3.94
C8A A18G C115A	-4.82
C20G A118G	-5.96
U38A C49G G60U G61A U116C U125A	-4.75
A16U C64A C89A A111G U130G	-5.81
A24G U112A	-0.197
G61A C99U	-2.85
C53A G77U C102U	-2
C72U C88G	-0.779
A43U C76U C123G	-0.376
A84C C94A	-1.23
A41U A46U C72U A83C U109A	-7.09

Variant	polymerase ribozyme fitness (log ratio)
C49A G51C G57C C72U C115G	-3.69
C88U G107A	-6.88
C3A C89A	-2.07
G117C A118C	-3.06
A95U U106C	-1.56
U7C C28A U78A C123U	-3
U78A U131C	0.382
A5G C8G G113U	-1.74
A27U C124A	-0.764
C94A C123G	-0.728
C3G G17U A50U U54A A74G A121C G135U	-4.33
C97G C115G G120C	-5.54
G36U C123G U131G	0.0423
C15U G58A G61U	-1.4
U9G U38G	-0.556
G61C G122A U126C G135U	-4.38
U32C U78C A100C	-2.28
C12A C56A C62U A91U G128C	-5.72
U9G C40G C53G U130G	-1.2
U96A C97A	-2.95
C3U C12U A18U U87A C88U	-2.52
C8A U55G C114A C115U	-2.83
C13U C28U C40U A74U C124A	-1.32
A41C C123A G128U	-2.19

Variant	polymerase ribozyme fitness (log ratio)
A46U A95G C115U G128A	-4.98
C34U G61C C102U C124U	-4.34
C73G A105C	-3.81
A37U A66U	-1.5
U14G G35A A46G U96A C114U	-5.86
G42U C72A	-0.339
C8G C13G A37C G52C C62G C86U	-4.08
C56A C73A C124G U125C U126A	-2.94
C80U C88U	-0.555
C31U A37U C49G A84U C104U G113U U133G	-6.55
C13A C94U	-2.74
A46U G47A C49U G61C C72U C85G	-2.44
C8G C31G C82A C124U	-6.38
U87G A91U	-1.46
C22U G63C C88A U130C	-5.23
C40U U112G	0.138
A50U G51A C73U	-3.5
G19A G61C C73U C89A C114U U131G	-5.3
A75G C102A	-1.52
G71A C115A	-2.31
C12G C56U U78A A90C C114U	-2.46
C15G A43U	-3.43
C72U C114U C115U	-7
C8A C15A A29U G42U C72G C114U	-4.6

Variant	polymerase ribozyme fitness (log ratio)
A6G G63C	0.397
C8U G44A G60U A121C G122U	-1.02
G77A C123G	1.16
C40A A41G C70U	-1.7
G45C C97A	-4.5
A41G C85A C124U G128C U133G	-3.58
C8U A41G C64G	-6.15
C8A C104U	0.701
G93U C114A	-3.05
C31G A50U G60C G110C	-6.92
G63U C64A	-6.48
C8G G44U G61A U78A C82G C115A U130A	0.635
C8A C53A G69U A119G U131A U134G	1.54
C12U C40A C99U	-4.01
C12A C56U	0.0114
G36U A66G G69U U87G	-2.53
C12G C15G C123U	-1.81
C79U G117A U125G	-1.82
C15G G17U C86A	-5.4
A18G G19U A46G U59A C79A	-4.25
C73U G77C G93A C124U U126G	-1.68
C12U C70U C76G U132C	-0.684
C86U C98U G117C	-5.99
C11U U87A	0.703

Variant	polymerase ribozyme fitness (log ratio)
C3U C70G	-2.84
C86G C123A	-0.0336
C13G C62G U87C A121C	-3.3
C8G G47A C64U C97A G120U	-4.09
A16C C49A	-3.04
C102U	-1.71
C20A G57A C72A U87A	-4.5
G45A C88A U112G	-0.116
A2C C4G G51C C101A	-6.08
A46G G47U	-1.31
G19C A43C G44C C64A A105C A111U	-7.06
G19C A24U G48U G52U C64G U109A G110U	-7.39
A100U U130A	-0.606
G57U C73U G127U	-1.28
U7A C97A C101U U112C	-2.6
C82G C86A C94G	-3.45
C12A C62G	-0.737
G19A C20A A66G G69U U96A	-4.02
U9G C56G A103U	-4.39
C12G C62G C99G C124A	-7.37
C13U C114G	-1.34
G39A G45A	-1.29
C22A U33C C49U C79A C123G	-7.05
A50G G60C C94U	-4.35

Variant	polymerase ribozyme fitness (log ratio)
A43G C70G G110U	-5.99
C101G G120U U129A	-3.12
C13U A18U G35U A50G G71A C124G	-7.8
U109A U134G	-5.32
C49A G61U U87C C98A	-3.8
C12A G122U C124A	1.6
C56G G93A	-1.61
G61A C94A	-0.27
A29U G45U G120A G128U	-3.92
C12A A75G C114A	-3.82
G69C G71U	-4.82
C20U C76U G93C	-3.66
C8G G36U C70U	0.358
U59C C62U C85A C115U	-2.93
A105C G110A C115U A119G	-6.05
U14G C20A C73U C102U U133A	-4.53
A18U G61C	-5.22
C8U C64A	-6.53
C70U C89U	-1.12
U32A	-3.82
C8U U21A A50C C53G G60A C88U U125C	-5.83
C11U C79U U81C C94A G120U	-4.75
C3A G17U	-4.27
G45A U130C	-1.02

Variant	polymerase ribozyme fitness (log ratio)
U7G G42A G71A	-2.58
G39U C76G	-0.793
C15G A83G G120C	-2.3
A27G G51A G61C	-4
G71C C82G U109A C115A A118U C123A	-6.35
A6U C8G G17A G48C C53A U126C	-4.16
A27G C102U	-3.53
U112A U126G	0.0604
G10U C11G G52U U109C C114U	-5.43
C40U G48U G52A A121U	-0.327
G61U U106G	-0.849
G69C U92C	-2.26
A2U G110C U131A	-5.15
A6C U21G G39U C72G C85A C124U G128A U133A	-3.4
G52A C88G	-0.655
G51A U87C U131A	-2.41
C70A C124G U125A	0.0006
C3G C22U G61C U109A	-6.73
A41G C86A U87C G113U	-4.97
G10U C49U G63A A100C	-3.83
C13G G47U G77U	-3.79
C3U G44U	-1.62
C53G G63C G127C	-1.19
